# Measured values: the RNAGym collection of RNA variant scans (doi:10.1073/pnas.2313332121)
# B1: TPR t1 (parent)
# chain: GACCAAUCUGCCCUCAGAGCUCGAGAACAUCUUCGGAUGCAGAGGAGGCAGGCUUCGGUGGCGCGAUAGCGCCAACGUCCUCAACCUCCAAUGCAUCCCACCACAUGAUGAUGCCUGAAGAGCCUUGGUUUUUUG
# Variants of: B1
# Experiment: polymerase ribozyme fitness, log enrichment relative to wild type (log ratio); higher = more active; in vitro selection for triplet polymerase activity
# In short: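 For each subunit of a heterodimeric triplet polymerase ribozyme, a mutant library was built by PCR and transcribed, then taken through a single in vitro selection round in triplicate. Selection involved annealing to a biotinylated primer, the partner subunit and triplets, incubation frozen at −7 °C, gel excision of extended constructs, capture on streptavidin beads and RT-PCR. Genotypes were retained after Illumina sequencing of inputs and outputs only with ≥10 input reads and ≥1 read in each output. Fitness is defined as the logarithm of a genotype's enrichment relative to wild-type enrichment, using inverse-variance-weighted averages across replicates, with the logarithm taken to base 2.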
row,Variant,polymerase ribozyme fitness (log ratio)
1,U7G U54C G58A U92C,-0.551
2,U7G C53G,-0.551
3,U7G C11U G69C C88A,-1.91
4,C8A C11G A16U A43C U78C U125A,-1.72
5,U7G C15G C88G U96A A108G C124A,-5.93
6,U7G G63A,0.0919
7,C8A A46U G61A G117C,-2.38
8,C8A G36A C79U U96G C102U,-2.91
9,C8A A103G G110U,-5.33
10,C8A A74U C115U A118U C124U,-0.848
11,C8A G47C G48A G58A G60U,-1.54
12,U7G A29G C89A C115A G122A,-1.64
13,C8A G36A G60U C82A G117C U131A G135U,-5.4
14,U7G U14A C56U U78C A84C C101A,-1.53
15,U7G U106C,1.03
16,U7G G57A C94A C99U A121C,-5.61
17,U7G G42C G71A C89G,-2.37
18,C8A G19C C82A,-1.97
19,U7G C15U C28G U32A A41U G63U C89A U116C,-4.52
20,C8A C15A A41C C49A G58U G63U,-3.45
21,U7G C31U,-3.68

row,Variant,polymerase ribozyme fitness (log ratio)
1,C8A G48U,-0.337
2,C8A G10A C86U G120C,1.44
3,C8A C40U,-0.324
4,C8A C12A C34U G39C G61U C85A,-7.04
5,C8A C15A A29U G42U,-3.65
6,U7G C40G C56U G69U,-2.3
7,C8A C56A,0.505
8,U7G U106G G117U,-3.33
9,C8A A50G A95C,0.286
10,U7G G17A G39A U55A G61A C82G C115A U130C,-1.97
11,C8A G44A A105G,-3.51
12,C8A C28G C64U C102A U109A,-4.53
13,C8A C13G A46U,-1.07
14,C8A C80A,-1.88
15,U7G A41C C114G,-0.902
16,C8A C22G A121U,-1.6
17,C8A C20U A105G U112C G113A,-0.707
18,U7G A41U C62U U132C,-0.941
19,C8A C12U C40U C86U,-0.152
20,U7G C64U,0.622
21,C8A G19A C88G A95C,-5.8

row,Variant,polymerase ribozyme fitness (log ratio)
1,C8A G42A C73U,-1.21
2,U7G C8U C15U G17A A50G,-3.01
3,U7G G60C,-0.367
4,U7G G65U C72U C73U U112G,-6.23
5,C8A A119G U126G,-0.311
6,C8A G39C C53G G61C,-0.548
7,C8A G45C A105U,-1.9
8,C8A C72U U109G,-3.8
9,U7G C70U C102A,-2.24
10,U7G U14G C94A,-0.903
11,U7G G61U C82G A91C U112C,0.65
12,U7G C8A G63U G65C,-6.38
13,C8A C53U C114A,0.0648
14,C8A C80U C88U U133A,-0.694
15,U7G A37U G47U U67G C70U,-7.04
16,C8A A90U,-0.513
17,U7G U133A,0.128
18,C8A C49A,0.247
19,C8A G45A,0.134
20,C8A G45U,-0.263
21,C8A C12A,0.497

row,Variant,polymerase ribozyme fitness (log ratio)
1,C8A C12U,-0.964
2,U7G C88G,-0.456
3,U7G G69C A100U,-2.07
4,U7G C49A C70U C85G U130A,-2.22
5,U7G C101G A121C,-0.603
6,U7G C40U A43G G44U C70U U112C,-0.649
7,C8A C104U G122A,0.724
8,C8A C12U C13G C98U,-1.16
9,U7G C56U,0.612
10,U7G G52U G57C C102A A111C,-2.69
11,U7G G10U G42U A46C U54A G57A C101U C114U,-4.29
12,C8A C28G C102A U109A,-4.85
13,C8A A75G G117A A121U,1.31
14,U7G C20U C53U A68C U112A,-6.37
15,U7G C8U G61A A90U A121C,0.312
16,C8A G35U G58C,-4.74
17,U7G C12U C20A C72U,-1.43
18,U7G G63A C102U,-3.01
19,C8A C15A A41C C49A G58U G63U U131A,-3.62
20,C8A A83G C104U U129A,-2.16
